This test has as its target Alistipes sp. Cas12f (Al3Cas12f), wild type (Alistipes sp.). The test can be described thus: SEC; apo Al3Cas12f without gRNA on an S200i 10/300 GL column; 50 mM Tris-HCl pH 7.5, 250 mM NaCl, 10 mM MgCl2, 0.5 mM EDTA, 5% glycerol, 0.5 mM TCEP; peak at about 11.5 mL, near the 158 kDa standard.

In the case of “Alistipes sp. Cas12f (Al3Cas12f), wild type (enzyme)”, the stoichiometry N – broadly, the number of molecules, sites or subunits per partner or assembly – stood at 2.
